Experiment [1] addresses mutated factor X (human FX in which amino acid 194 has been mutated from Arg to Tyr) (human) (UniProt P00742). In words: cell-based or functional assay.
The target in experiment [2] is nonmutated (wild-type) FX (UniProt P00742). In words: cell-based or functional assay.

Regarding “prostate-specific antigen (PSA) (from UniProt P07288 25-261) (enzyme)”, in experiment [1], the coagulation time (recalcification time in FX-deficient plasma) worked out at 50 s. Consider Russel's viper venom (RVV), for which the coagulation time (recalcification time in FX-deficient plasma) in experiment [2] was 50 s.

Source of the values: patent publication US6670147.
